T1: his-tagged Syrian golden hamster (Mesocricetus auratus) PCSK9 (Syrian golden hamster (Mesocricetus …))
T1 construct: also called maPCSK9-h; maPCSK9
T1 chain: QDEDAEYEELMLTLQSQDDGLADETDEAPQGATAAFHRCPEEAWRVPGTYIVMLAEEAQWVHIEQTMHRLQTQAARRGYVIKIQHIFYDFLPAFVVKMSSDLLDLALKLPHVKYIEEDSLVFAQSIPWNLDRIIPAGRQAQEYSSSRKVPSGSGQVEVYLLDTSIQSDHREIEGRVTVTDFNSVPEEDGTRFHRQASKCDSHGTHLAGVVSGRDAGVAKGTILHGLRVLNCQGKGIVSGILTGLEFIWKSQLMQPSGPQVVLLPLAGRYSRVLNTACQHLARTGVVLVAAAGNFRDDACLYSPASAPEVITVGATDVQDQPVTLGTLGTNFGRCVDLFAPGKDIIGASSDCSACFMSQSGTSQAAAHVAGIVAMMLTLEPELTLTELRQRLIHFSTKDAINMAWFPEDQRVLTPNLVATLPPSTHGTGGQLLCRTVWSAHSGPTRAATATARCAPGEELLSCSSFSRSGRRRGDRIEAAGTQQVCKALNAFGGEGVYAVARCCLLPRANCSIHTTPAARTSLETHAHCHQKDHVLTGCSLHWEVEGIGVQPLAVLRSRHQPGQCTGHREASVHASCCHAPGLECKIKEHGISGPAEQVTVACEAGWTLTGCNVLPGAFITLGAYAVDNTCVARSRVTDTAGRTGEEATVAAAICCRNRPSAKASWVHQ


What was measured:
hPCSK9(R237E) [1] = biological target: T2, hPCSK9(R237E) (human, UniProt Q8NBP7 31-692); experiment: SPR, mAb captured, 25C;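 note: antibodies held on a sensor chip bearing chemically coupled F(ab′)2 anti-human IgG as the capture surface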
T2 construct: mmh-tagged variant hPCSK9
Source text: Each selected antibody was captured on a F(ab′)2 anti-hIgG surface created through direct chemical coupling to a BIACORE™ chip to form a captured antibody surface.

hPCSK9(R357H) = biological target: T3, hPCSK9(R357H) (human, UniProt Q8NBP7 31-692); experiment: ELISA, mAb coated, variant 0-5 nM
T3 construct: mmh-tagged variant hPCSK9
Procedure: (§1) Anti-PCSK9 mAbs were coated on a 96-well plate overnight at 4° C.

hPCSK9(S153R) = biological target: T4, hPCSK9(S153R) (human, UniProt Q8NBP7 31-692); experiment: ELISA, mAb coated, variant 0-5 nM
T4 construct: mmh-tagged variant hPCSK9
Procedure: as §1

hPCSK9(R237E) [2] = biological target: T2, hPCSK9(R237E); experiment: ELISA, mAb coated, variant 0-5 nM
Procedure: as §1

hPCSK9(A341R) = biological target: T5, hPCSK9(A341R) (human, UniProt Q8NBP7 31-692); experiment: ELISA, mAb coated, variant 0-5 nM
T5 construct: mmh-tagged variant hPCSK9
Procedure: as §1

hPCSK9(F216L) = biological target: T6, hPCSK9(F216L) (human, UniProt Q8NBP7 31-692); experiment: ELISA, mAb coated, variant 0-5 nM
T6 construct: mmh-tagged variant hPCSK9
Procedure: as §1

hPCSK9(V380M) = biological target: T7, hPCSK9(V380M) (human, UniProt Q8NBP7 31-692); experiment: ELISA, mAb coated, variant 0-5 nM
T7 construct: mmh-tagged variant hPCSK9
Procedure: as §1

hPCSK9(E197R) = biological target: T8, hPCSK9(E197R) (human, UniProt Q8NBP7 31-692); experiment: ELISA, mAb coated, variant 0-5 nM
T8 construct: mmh-tagged variant hPCSK9
Procedure: as §1

hPCSK9(T162R) = biological target: T9, hPCSK9(T162R) (human, UniProt Q8NBP7 31-692); experiment: ELISA, mAb coated, variant 0-5 nM
T9 construct: mmh-tagged variant hPCSK9
Procedure: as §1

hPCSK9(D192R) = biological target: T10, hPCSK9(D192R) (human, UniProt Q8NBP7 31-692); experiment: ELISA, mAb coated, variant 0-5 nM
T10 construct: mmh-tagged variant hPCSK9
Procedure: as §1

hPCSK9(S127R) = biological target: T11, hPCSK9(S127R) (human, UniProt Q8NBP7 31-692); experiment: ELISA, mAb coated, variant 0-5 nM
T11 construct: mmh-tagged variant hPCSK9
Procedure: as §1

hPCSK9(R215H) = biological target: T12, hPCSK9(R215H) (human, UniProt Q8NBP7 31-692); experiment: ELISA, mAb coated, variant 0-5 nM
T12 construct: mmh-tagged variant hPCSK9
Procedure: as §1

hPCSK9(P70A) = hPCSK9(P70A) (human, UniProt Q8NBP7 31-692); experiment: ELISA, mAb coated, variant 0-5 nM
Procedure: as §1

hPCSK9(D238R) = biological target: T13, hPCSK9(D238R) (human, UniProt Q8NBP7 31-692); experiment: ELISA, mAb coated, variant 0-5 nM
T13 construct: mmh-tagged variant hPCSK9
Procedure: as §1

hPCSK9(R215E) = biological target: T14, hPCSK9(R215E) (human, UniProt Q8NBP7 31-692); experiment: ELISA, mAb coated, variant 0-5 nM
T14 construct: mmh-tagged variant hPCSK9
Procedure: as §1

hPCSK9(D129G) = biological target: T15, hPCSK9(D129G) (human, UniProt Q8NBP7 31-692); experiment: ELISA, mAb coated, variant 0-5 nM
T15 construct: mmh-tagged variant hPCSK9
Procedure: as §1

hPCSK9(R194E) = biological target: T16, hPCSK9(R194E) (human, UniProt Q8NBP7 31-692); experiment: ELISA, mAb coated, variant 0-5 nM
T16 construct: mmh-tagged variant hPCSK9
Procedure: as §1

hPCSK9(E366K) = biological target: T17, hPCSK9(E366K) (human, UniProt Q8NBP7 31-692); experiment: ELISA, mAb coated, variant 0-5 nM
T17 construct: mmh-tagged variant hPCSK9
Procedure: as §1

hPCSK9(P70A, S147F) = hPCSK9(P70A, S147F) (human, UniProt Q8NBP7 31-692); experiment: ELISA, mAb coated, variant 0-5 nM
Procedure: as §1

Human PCSK9-myc-myc-his = biological target: T18, Human PCSK9-myc-myc-his (human, UniProt Q8NBP7 31-692); experiment: ELISA, mAb coated, variant 0-5 nM
T18 construct: also called hPCSK9-mmh; hPCSK9
Procedure: as §1

hPCSK9(D343R) = biological target: T19, hPCSK9(D343R) (human, UniProt Q8NBP7 31-692); experiment: ELISA, mAb coated, variant 0-5 nM
T19 construct: mmh-tagged variant hPCSK9
Procedure: as §1

hPCSK9(E366K, V380M) = biological target: T20, hPCSK9(E366K, V380M) (human, UniProt Q8NBP7 31-692); experiment: ELISA, mAb coated, variant 0-5 nM
T20 construct: mmh-tagged variant hPCSK9
Procedure: as §1

hPCSK9(E159R) = biological target: T21, hPCSK9(E159R) (human, UniProt Q8NBP7 31-692); experiment: ELISA, mAb coated, variant 0-5 nM
T21 construct: mmh-tagged variant hPCSK9
Procedure: as §1

hPCSK9(S147F) = biological target: T22, hPCSK9(S147F) (human, UniProt Q8NBP7 31-692); experiment: ELISA, mAb coated, variant 0-5 nM
T22 construct: mmh-tagged variant hPCSK9
Procedure: as §1

[3] = biological target: T1, his-tagged Syrian golden hamster …; experiment: competition ELISA vs EGF-A, pH 7.2
Procedure: (§2) Briefly, hLDLR-ecto, hLDLR EGF-A-hFc or hLDLR EGF-AB-hFc, each at 2 μg/ml, was coated on a 96-well plate in PBS buffer overnight at 4° C., and nonspecific binding sites blocked with BSA. […] The equilibrated sample solutions were transferred to receptor or receptor fragment coated plates.

[4] = biological target: T23, mouse PCSK9, myc-myc-his tagged (mouse, UniProt Q80W65 35-694); experiment: competition ELISA vs EGF-A, pH 7.2
T23 construct: also called mPCSK9-mmh; mPCSK9
T23 sequence (Q80W65 35-694 limits assumed): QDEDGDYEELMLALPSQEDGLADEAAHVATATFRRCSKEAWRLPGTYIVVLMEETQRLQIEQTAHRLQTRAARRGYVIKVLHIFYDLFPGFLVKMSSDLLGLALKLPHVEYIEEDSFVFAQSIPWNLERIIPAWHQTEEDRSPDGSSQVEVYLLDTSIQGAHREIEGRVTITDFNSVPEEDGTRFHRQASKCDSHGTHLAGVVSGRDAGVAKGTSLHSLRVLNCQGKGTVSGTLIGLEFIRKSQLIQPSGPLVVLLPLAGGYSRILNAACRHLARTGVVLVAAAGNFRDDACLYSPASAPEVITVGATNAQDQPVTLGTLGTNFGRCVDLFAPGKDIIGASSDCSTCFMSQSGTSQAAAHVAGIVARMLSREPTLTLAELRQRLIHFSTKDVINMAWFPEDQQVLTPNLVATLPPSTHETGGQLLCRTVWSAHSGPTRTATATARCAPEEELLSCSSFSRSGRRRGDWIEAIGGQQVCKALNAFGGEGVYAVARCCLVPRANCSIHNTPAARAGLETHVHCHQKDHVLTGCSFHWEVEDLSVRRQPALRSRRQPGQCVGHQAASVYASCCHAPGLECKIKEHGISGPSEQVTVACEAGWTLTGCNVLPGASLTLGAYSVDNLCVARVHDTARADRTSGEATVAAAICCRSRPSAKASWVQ
Procedure: as §2

| Binder | Kd (hPCSK9(R237E) [1]) [nM] | T1/2 (hPCSK9(R237E) [1]) [h] | OD (hPCSK9(R357H)) [od] | OD (hPCSK9(S153R)) [od] | OD (hPCSK9(R237E) [2]) [od] | OD (hPCSK9(A341R)) [od] | OD (hPCSK9(F216L)) [od] | OD (hPCSK9(V380M)) [od] | OD (hPCSK9(E197R)) [od] | OD (hPCSK9(T162R)) [od] | OD (hPCSK9(D192R)) [od] | OD (hPCSK9(S127R)) [od] | OD (hPCSK9(R215H)) [od] | OD (hPCSK9(P70A)) [od] | OD (hPCSK9(D238R)) [od] | OD (hPCSK9(R215E)) [od] | OD (hPCSK9(D129G)) [od] | OD (hPCSK9(R194E)) [od] | OD (hPCSK9(E366K)) [od] | OD (hPCSK9(P70A, S147F)) [od] | further results |
| --- | --- | --- | --- | --- | --- | --- | --- | --- | --- | --- | --- | --- | --- | --- | --- | --- | --- | --- | --- | --- | --- |
| H1H316P (antibody, V domains shown, Fully human mAb made in CHO cells; also called mAb316P) VH: EVQLVESGGGLVQPGGSLRLSCAASGFTFNNYAMNWVRQAPGKGLDWVSTISGSGGTTNYADSVKGRFIISRDSSKHTLYLQMNSLRAEDTAVYYCAKDSNWGNFDLWGRGTLVTVSS VL: not shown | 2.48 | 0.25 | > 1.5 | > 1.5 | > 1.5 | > 1.5 | > 1.5 | > 1.5 | > 1.5 | > 1.5 | > 1.5 | > 1.5 | > 1.5 | > 1.5 | < 0.7 | > 1.5 | > 1.5 | > 1.5 | > 1.5 | > 1.5 | OD (Human PCSK9-myc-myc-his): > 1.5 od; OD (hPCSK9(D343R)): > 1.5 od; OD (hPCSK9(E366K, V380M)): > 1.5 od; OD (hPCSK9(E159R)): > 1.5 od; OD (hPCSK9(S147F)): > 1.5 od; IC50 [3]: 0.349 nM; IC50 [4]: 0.305 nM |
| H1M300N (antibody, V domains shown, Fully human version made in CHO cells) VH: EMQLVESGGGLVQPGGSLRLSCAASGFTFSSHWMKWVRQAPGKGLEWVANINQDGSEKYYVDSVKGRFTISRDNAKNSLFLQMNSLRAEDTAVYYCARDIVLMVYDMDYYYYGMDVWGQGTTVTVSS VL: not shown | 1.03 | 1.82 | > 1.5 | > 1.5 | > 1.5 | > 1.5 | > 1.5 | > 1.5 | > 1.5 | > 1.5 | > 1.5 | > 1.5 | > 1.5 | > 1.5 | > 1.5 | > 1.5 | > 1.5 | > 1.5 | 0.7 to 1.5 | > 1.5 | OD (Human PCSK9-myc-myc-his): > 1.5 od; OD (hPCSK9(D343R)): > 1.5 od; OD (hPCSK9(E366K, V380M)): 0.7 to 1.5 od; OD (hPCSK9(E159R)): > 1.5 od; OD (hPCSK9(S147F)): > 1.5 od; IC50 [3]: > 100 nM; IC50 [4]: > 100 nM |
